The subject of data set [1] is T1, N-terminal-valine fructosylated peptide having an amino acid sequence represented by SEQ ID NO: 2.
T1 sequence: VHL

In a further data set the test system is T2, f-VHLTPE.
T2 sequence: VHLTPE

The subject of another data set is T3, f-VHLTP.
T3 sequence: VHLTP

For the next data set, the system named is T4, f-VHLT.
T4 sequence: VHLT

In data set [2] the test system is T5, fructosyl valyl histidine.
T5 sequence: VH

As for “defructosylation enzyme originating from a plant belonging to the family Zingiberaceae (Zingiber officinale rhizome)”, in data set [1], the Absorbance at 700 nm (mAbs), colour development of DA-64 (hydrogen peroxide produced) worked out at 570 mAbs; the “capillary electrophoresis peak area after 16 hours of reaction at 37° C. (defructosylation)” value was “the peak attributed to f-VHL does not exist and the peak attributed to VHL is increased (area: 32 mABU×sec)”; the “enzyme activity with the peptide as a substrate” value (from here on “enzyme activity with the peptide”) was “the enzyme is effective on fructosyl valine and at least fructosyl peptides having amino acid sequences represented by SEQ ID NOs: 1 to 5”. Besides, in the data set with f-VHLTPE, the Absorbance at 700 nm (mAbs), colour development of DA-64 (hydrogen peroxide produced) stood at 223 mAbs; the “enzyme activity with the peptide” value was “the enzyme is effective on fructosyl valine and at least fructosyl peptides having amino acid sequences represented by SEQ ID NOs: 1 to 5”. In the data set on f-VHLTP, the Absorbance at 700 nm (mAbs), colour development of DA-64 (hydrogen peroxide produced) was found to be 198 mAbs; the “enzyme activity with the peptide” value was “the enzyme is effective on fructosyl valine and at least fructosyl peptides having amino acid sequences represented by SEQ ID NOs: 1 to 5”. In the data set with f-VHLT, the Absorbance at 700 nm (mAbs), colour development of DA-64 (hydrogen peroxide produced) amounted to 558 mAbs; the “enzyme activity with the peptide” value is “the enzyme is effective on fructosyl valine and at least fructosyl peptides having amino acid sequences represented by SEQ ID NOs: 1 to 5”. Moreover, in data set [2], the Absorbance at 700 nm (mAbs), colour development of DA-64 (hydrogen peroxide produced) amounted to 735 mAbs; the “Michaelis constant (Km), Lineweaver-Burk's plots of enzyme activity (glucosone production)” value is recorded as “the Km value of the enzyme for fructosyl valyl histidine: 1.2 mM”; the “absorbance at 550 nm (glucosone produced, glucose oxidase/peroxidase colour system)” value was “The absorbance was found to increase in accordance with the increase in concentration of fructosyl valyl histidine”; the “enzyme activity with the peptide” value was “the enzyme is effective on fructosyl valine and at least fructosyl peptides having amino acid sequences represented by SEQ ID NOs: 1 to 5”.

These data come from US20070054344.
